Measurements published in patent publication US20250369982A1 (INCENDIATHERAPEUTICS, published 2025).
Like-named read-outs stand apart in the source and are kept apart here.

T1: mouse DDR1 extracellular domain (mouse, UniProt Q03146 22-415)
T1 construct: extracellular domain
T1 sequence (looked up): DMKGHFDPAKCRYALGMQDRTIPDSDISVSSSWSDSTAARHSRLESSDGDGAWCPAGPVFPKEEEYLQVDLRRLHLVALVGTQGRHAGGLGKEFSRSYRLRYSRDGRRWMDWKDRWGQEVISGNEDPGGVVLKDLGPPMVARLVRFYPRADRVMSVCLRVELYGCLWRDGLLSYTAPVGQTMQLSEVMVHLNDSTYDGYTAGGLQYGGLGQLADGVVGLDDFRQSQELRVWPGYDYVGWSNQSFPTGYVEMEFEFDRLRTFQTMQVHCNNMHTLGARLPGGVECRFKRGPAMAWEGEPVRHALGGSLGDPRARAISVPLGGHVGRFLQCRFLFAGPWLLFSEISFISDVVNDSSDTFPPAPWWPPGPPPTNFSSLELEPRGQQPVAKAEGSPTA


What was measured:
[1] = target: T1, mouse DDR1 extracellular domain; test: SPR
[2] = target: T2, DDR1 on T47D breast cancer cells (human, UniProt Q08345 19-913); test: cell-based or functional assay
[3] = target: DDR1 overexpressed on HEK293 cells (Homo sapiens (Human), UniProt Q08345 19-913); test: cell-based or functional assay
[4] = target: T2, DDR1 on T47D breast cancer cells; test: cell-based or functional assay; remark: listed apart in the source
[5] = target: T2, DDR1 on T47D breast cancer cells; test: cell-based or functional assay; remark: listed apart in the source

T2 sequence (Q08345 19-913 limits assumed, stated change not applied): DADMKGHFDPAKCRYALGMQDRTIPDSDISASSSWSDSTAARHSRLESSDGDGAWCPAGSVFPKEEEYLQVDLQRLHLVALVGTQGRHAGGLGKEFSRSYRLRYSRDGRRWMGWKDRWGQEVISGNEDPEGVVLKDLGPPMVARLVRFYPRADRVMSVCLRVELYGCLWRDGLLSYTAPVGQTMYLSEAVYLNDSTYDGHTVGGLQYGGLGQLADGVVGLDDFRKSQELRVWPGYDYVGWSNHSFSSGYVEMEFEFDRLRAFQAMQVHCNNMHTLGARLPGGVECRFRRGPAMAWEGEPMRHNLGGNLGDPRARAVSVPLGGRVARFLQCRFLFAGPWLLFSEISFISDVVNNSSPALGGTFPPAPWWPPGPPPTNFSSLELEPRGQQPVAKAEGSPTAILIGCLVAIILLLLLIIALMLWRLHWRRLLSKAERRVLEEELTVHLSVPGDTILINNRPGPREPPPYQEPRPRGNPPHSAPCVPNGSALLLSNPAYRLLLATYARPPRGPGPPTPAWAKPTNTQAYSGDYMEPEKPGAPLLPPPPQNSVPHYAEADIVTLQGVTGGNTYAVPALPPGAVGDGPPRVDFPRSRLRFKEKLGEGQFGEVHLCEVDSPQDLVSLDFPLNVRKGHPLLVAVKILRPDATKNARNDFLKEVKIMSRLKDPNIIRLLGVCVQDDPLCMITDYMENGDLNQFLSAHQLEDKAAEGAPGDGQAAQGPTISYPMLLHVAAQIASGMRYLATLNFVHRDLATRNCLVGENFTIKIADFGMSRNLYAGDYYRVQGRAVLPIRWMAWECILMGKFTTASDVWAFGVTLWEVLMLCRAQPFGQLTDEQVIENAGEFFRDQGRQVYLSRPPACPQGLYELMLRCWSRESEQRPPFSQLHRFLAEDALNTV
DDR1 overexpressed on HEK293 cells, sequence (Q08345 19-913 limits assumed): as the sequence (Q08345 19-913 limits assumed, stated change not applied) above

Row | Kd [1] | koff [1] | kon [1] | IC50 for inhibiting Collagen I-induced phosphorylation of DDR1 in T47D cells [2] | IC50 for 9H1-WT inhibition of DDR1 OE cell adhesion to collagen I-coated plates [3] | IC50, inhibition of human collagen I (50 µg/ml)-induced DDR1 phosphorylation in T47D cells (pDDR1 normalised with vinculin), single experiment; unit taken from the axis [9H1] (µg/ml) [4] | IC50, inhibition of human collagen I (50 µg/ml)-induced DDR1 phosphorylation in T47D cells (pDDR1 normalised with vinculin), single experiment; unit taken from the axis [9H1] (µg/ml) [5] | Binder
1 | 0.00101 µM | 0.00106 s⁻¹ | 1.05e+06 M⁻¹ s⁻¹ | – | – | – | – | mAb #33 inert IgG1 Fc (antibody, V domains shown, also called chimeric rabbit/human mAb #33 with inert IgG1 Fc; chimeric mAb #33) VH: QSVEESGGRLVTPGGSLTLTCTVSGFSLSSYDMSWVRQAPGKGLEWIGISWNSGFVDYASWAKGRFSISKTSTTVDLKITSPTTEDTATYFCARLGADDIYYFNLWGPGTLVTISS VL: ELVMTQTPASVEAAVGGTVTIKCQASETISSRLAWYQQKPGQPPKLLIYQASKLPSGVPSRFKGTGSGTEYTLTISDLECADAATYYCQGCYYGGGSFYDSAFGGGTEVVVKR
2 | 0.0176 µM | – | – | 0.05 to 0.06 mg/L | ~0.065 mg/L | 0.09 µg/ml | 0.05 µg/ml | mAb #9H1 WT IgG1 Fc (antibody, also called humanized mAb #9H1 with wt IgG1Fc) heavy: not shown light: DIQMTQSPSSVSASVGDRVTITCQASQSIGSVLAWYQQKPGKAPKLLISGVFDLASGVPSRFSGSGSGTDFTLTISSLQPEDFATYYCQYIPYGSSPFGGGTKVEIKRTVAAPSVFIFPPSDEQLKSGTASVVCLLNNFYPREAKVQWKVDNALQSGNSQESVTEQDSKDSTYSLSSTLTLSKADYEKHKVYACEVTHQGLSSPVTKSFNRGEC
3 | 0.019 µM | – | – | – | – | – | – | mAb #9H1 inert IgG1 Fc (antibody, No sentence equates the two names; also called humanized mAb #9H1 with inert IgG1Fc; humanized DDR1-9 1 inert IgG1 Fc) heavy: QVQLVESGGRVVQPGRSLRLSCTASGFSLNRYYMLWVRQAPGKGLEWIGTISYGDTTYYASWAKGRFTISRDNSKNTLYLQMNSLRAEDTAVYYCARADTGDNGYLGLQLWGQGTLVTVSSASTKGPSVFPLAPSSKSTSGGTAALGCLVKDYFPEPVTVSWNSGALTSGVHTFPAVLQSSGLYSLSSVVTVPSSSLGTQTYICNVNHKPSNTKVDKRVEPKSCDKTHTCPPCPAPEAEGAPSVFLFPPKPKDTLMISRTPEVTCVVVDVSHEDPEVKFNWYVDGVEVHNAKTKPREEQYNSTYRVVSVLTVLHQDWLNGKEYKCKVSNKALPSSIEKTISKAKGQPREPQVYTLPPSREEMTKNQVSLTCLVKGFYPSDIAVEWESNGQPENNYKTTPPVLDSDGSFFLYSKLTVDKSRWQQGNVFSCSVMHEALHNHYTQKSLSLSPGK light: DIQMTQSPSSVSASVGDRVTITCQASQSIGSVLAWYQQKPGKAPKLLISGVFDLASGVPSRFSGSGSGTDFTLTISSLQPEDFATYYCQYIPYGSSPFGGGTKVEIKRTVAAPSVFIFPPSDEQLKSGTASVVCLLNNFYPREAKVQWKVDNALQSGNSQESVTEQDSKDSTYSLSSTLTLSKADYEKHKVYACEVTHQGLSSPVTKSFNRGEC
